Earlier results, collected in PMC8967867.

Target: NCOA3 CID (Homo sapiens) (UniProt Q9Y6Q9)
Sequence (Q9Y6Q9 1023-1093): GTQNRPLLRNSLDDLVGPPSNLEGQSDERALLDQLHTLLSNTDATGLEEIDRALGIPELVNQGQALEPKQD

CBP NCBD, sequence (Q92793 2058-2116): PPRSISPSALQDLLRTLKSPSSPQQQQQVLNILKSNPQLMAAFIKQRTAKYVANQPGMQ

CBP NCBD (from UniProt Q92793)
Kd: 0.2 µM
